Earlier results in publication PMC6387150.

Molecular target: IL-18 (Homo sapiens) (UniProt Q14116)
Sequence (Q14116 37-193): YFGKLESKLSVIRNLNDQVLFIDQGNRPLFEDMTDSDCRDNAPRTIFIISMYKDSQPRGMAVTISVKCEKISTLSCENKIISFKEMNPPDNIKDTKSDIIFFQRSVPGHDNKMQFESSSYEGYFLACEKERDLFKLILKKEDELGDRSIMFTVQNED

IL-18BP, sequence (O95998 31-194): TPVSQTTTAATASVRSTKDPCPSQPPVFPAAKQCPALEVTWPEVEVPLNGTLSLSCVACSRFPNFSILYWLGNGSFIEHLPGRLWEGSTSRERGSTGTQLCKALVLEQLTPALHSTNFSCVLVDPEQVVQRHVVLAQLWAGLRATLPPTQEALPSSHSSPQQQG

IL-18BP (from UniProt O95998)
Kd: 0.4 nM
